Test results taken from IntAct's records for PubMed 21358628.

B1: DNA-directed RNA polymerase III subunit RPC3 (Homo sapiens), Q9BUI4 (parent)
chain: MTQAEIKLCSLLLQEHFGEIVEKIGVHLIRTGSQPLRVIAHDTGTSLDQVKKALCVLVQHNLVSYQVHKRGVVEYEAQCSRVLRMLRYPRYIYTTKTLYSDTGELIVEELLLNGKLTMSAVVKKVADRLTETMEDGKTMDYAEVSNTFVRLADTHFVQRCPSVPTTENSDPGPPPPAPTLVINEKDMYLVPKLSLIGKGKRRRSSDEDAAGEPKAKRPKYTTDNKEPIPDDGIYWQANLDRFHQHFRDQAIVSAVANRMDQTSSEIVRTMLRMSEITTSSSAPFTQPLSSNEIFRSLPVGYNISKQVLDQYLTLLADDPLEFVGKSGDSGGGMYVINLHKALASLATATLESVVQERFGSRCARIFRLVLQKKHIEQKQVEDFAMIPAKEAKDMLYKMLSENFMSLQEIPKTPDHAPSRTFYLYTVNILSAARMLLHRCYKSIANLIERRQFETKENKRLLEKSQRVEAIIASMQATGAEEAQLQEIEEMITAPERQQLETLKRNVNKLDASEIQVDETIFLLESYIECTMKRQ
partner: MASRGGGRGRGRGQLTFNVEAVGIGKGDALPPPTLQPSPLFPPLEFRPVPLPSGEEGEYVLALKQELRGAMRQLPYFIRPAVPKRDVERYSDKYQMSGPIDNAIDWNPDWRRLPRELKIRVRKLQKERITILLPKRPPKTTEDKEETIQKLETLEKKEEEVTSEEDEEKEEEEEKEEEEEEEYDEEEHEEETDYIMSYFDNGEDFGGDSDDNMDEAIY
B2: DNA-directed RNA polymerase III subunit RPC3 (Homo sapiens), Q9BUI4 (parent)
chain: B1 chain

Variants of: B1
Conditions: with rpc7l_human POLR3GL

Row | Variant | effect of a mutation on the interaction
1 | L312K | disrupting interaction

Variants of: B2
Conditions: with rpc7_human POLR3G

Row | Variant | effect of a mutation on the interaction
2 | L312K | disrupting interaction
